# From patent US20030064071A1 (NEW YORK UNIVERSITY, published 2003)
# B1: DC-SIGN (receptor)
# chain: MSDSKEPRLQQLGLLEEEQLRGLGFRQTRGYKSLAGCLGHGPLVLQLLSFTLLAGLLVQVSKVPSSISQEQSRQDAIYQNLTQLKAAVGELSEKSKLQEIYQELTQLKAAVGELPEKSKLQEIYQELTRLKAAVGELPEKSKLQEIYQELTWLKAAVGELPEKSKMQEIYQELTRLKAAVGELPEKSKQQEIYQELTRLKAAVGELPEKSKQQEIYQELTRLKAAVGELPEKSKQQEIYQELTQLKAAVERLCHPCPWEWTFFQGNCYFMSNSQRNWHDSITACKEVGAQLVVIKSAEEQNFLQLQSSRSNRFTWMGLSDLNQEGTWQWVDGSPLLPSFKQYWNRGEPNNVGEEDCAEFSGNGWNDDKCNLAKFWICKKSAASCSRDEEQFLSPAPATPNPPPA
# notes: also called THP-DC-SIGN (THP-1 transfectant)
# Target: T1, M-tropic HIV-1MN envelope glycoprotein gp120 (HIV-1 (strain MN), UniProt P05877 32-513)
# T1 construct: domain: gp120; also called HIV-1 gp120; HIV-1MN gp120
# Test: fluorescent bead adhesion assay, flow cytometry
binder,measurement,value
B1,binding result,binds
